Results on two substances are retold here after doi:10.1101/2021.07.28.454137.

As usually defined, the stoichiometry N is the number of molecules, sites or subunits per partner or assembly.

Like-named read-outs stand apart in the source and are kept apart here.

Experiment [1] deals with human LonP1 T803V mutant, amino acids 125 to 959 (human) (UniProt P36776).
For experiment [2], the target named is human mitochondrial Lon protease homolog (LonP1), wild-type, amino acids 125 to 959 (human) (UniProt P36776). The experiment in a line: cryo-EM structure.
Experiment [3] shares this target. The experiment in a line: cryo-EM structure. This is another data set of the same source.

In experiment [1], “human LonP1 T803V mutant, amino acids 125 to 959 (from UniProt P36776 125-959) (enzyme)” returned an ATPase activity relative to wild-type LonP1 of 50%. In the case of “human mitochondrial Lon protease homolog (LonP1), wild-type, amino acids 125 to 959 (from UniProt P36776 125-959) (enzyme)”, the stoichiometry N in experiment [2] and in experiment [3] was 6 throughout.
